For this experiment, the target named is wild-type His6-Gαi1 (rat, UniProt P10824 1-354). Put plainly: SEC. Background: SEC sorts molecules by how far they enter the pores of the column.
Chain of wild-type His6-Gαi1 (P10824 whole entry): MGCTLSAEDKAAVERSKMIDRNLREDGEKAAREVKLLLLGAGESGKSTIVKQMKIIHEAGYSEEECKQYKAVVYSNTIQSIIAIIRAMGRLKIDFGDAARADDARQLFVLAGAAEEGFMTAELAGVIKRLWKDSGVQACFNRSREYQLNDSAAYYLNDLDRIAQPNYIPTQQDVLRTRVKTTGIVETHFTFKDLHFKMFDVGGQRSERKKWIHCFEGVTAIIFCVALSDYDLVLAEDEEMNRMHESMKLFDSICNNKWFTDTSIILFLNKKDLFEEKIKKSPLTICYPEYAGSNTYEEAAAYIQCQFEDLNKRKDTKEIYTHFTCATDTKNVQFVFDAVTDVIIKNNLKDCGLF

B1: TxHis6-ΔRGS14 (encoding amino acids 299-544, including the RBD domains and GL domain) (domain or fragment, rat, UniProt O08773 299-544, looked up)
chain: GKYCCVYLPDGTASLALARPGLTIRDMLAGICEKRGLSLPDIKVYLVGKEQKALVLDQDCTVLADQEVRLENRITFQLELVGLERVVRISAKPTKRLQEALQPILAKHGLSLDQVVLHRPGEKQLVDLENLVSSVASQTLVLDTLPDAKTREASSIPPCRSQGCLPRTQTKDSHLPPLSSSLSVEDASGSTGKRQTCDIEGLVELLNRVQSSGAHDQRGLLRKEDLVLPEFLQLPSQRPGSQEAPP
In the case of B1, the binding result was “binds”.

The values are drawn from PMC3087496 (Biochemistry, 2011).
